Laboratory results from patent publication US20240052063A1, “Binding Proteins 2” (Nucleus Therapeutics Pty. Ltd., priority 2017, published 2024).
Changes are numbered by the printed parent chain.

B1: Variant 15: cell penetrating anti-DNA di-scFv variant, amino acid sequence SEQ ID NO: 43 (protein)
scFv: DIQMTQSPSSLSASLGDRATITCRASKTVSTSSYSYMHWYQQKPGQPPKLLIKYASYLESGVPSRFSGSGSGTDFTLTISSLQPEDAATYYCQHSREFPWTFGGGTKVEIKRADAAPGGGGSGGGGSGGGGSEVQLVESGGGDVKPGGSLRLSCAASGFTFSNYGMHWVRQAPEKGLEWVSYISSGSSTIYYADSVKGRFTISRDNSKNTLYLQMNSLRAEDTAVYYCARRGLLLDYWGQGTTVTVSSASTKGPSVFPLAPLESSGSDIQMTQSPSSLSASLGDRATITCRASKTVSTSSYSYMHWYQQKPGQPPKLLIKYASYLESGVPSRFSGSGSGTDFTLTISSLQPEDAATYYCQHSREFPWTFGGGTKVEIKRADAAPGGGGSGGGGSGGGGSEVQLVESGGGDVKPGGSLRLSCAASGFTFSNYGMHWVRQAPEKGLEWVSYISSGSSTIYYADSVKGRFTISRDNSKNTLYLQMNSLRAEDTAVYYCARRGLLLDYWGQGTTVTVSS
modifications: Variant 15
B2: Variant 10: cell penetrating anti-DNA di-scFv variant, amino acid sequence SEQ ID NO: 38 (protein)
scFv: DIQMTQSPSSLSASVGDRVTITCRASKSVSTSSYSYMHWYQQKPGKAPKLLIKYASYLESGVPSRFSGSGSGTDFTLTISSLQPEDFATYYCQHSREFPWTFGQGTKVEIKRADAAPGGGGSGGGGSGGGGSEVQLVESGGGLVQPGGSLRLSCAASGFTFSNYGMHWVRQAPGKGLEWVSYISSSSSTIYYADSVKGRFTISRDNAKNSLYLQMNSLRAEDTAVYYCARRGLLLDYWGQGTTVTVSSASTKGPSVFPLAPLESSGSDIQMTQSPSSLSASVGDRVTITCRASKSVSTSSYSYMHWYQQKPGKAPKLLIKYASYLESGVPSRFSGSGSGTDFTLTISSLQPEDFATYYCQHSREFPWTFGQGTKVEIKRADAAPGGGGSGGGGSGGGGSEVQLVESGGGLVQPGGSLRLSCAASGFTFSNYGMHWVRQAPGKGLEWVSYISSSSSTIYYADSVKGRFTISRDNAKNSLYLQMNSLRAEDTAVYYCARRGLLLDYWGQGTTVTVSS
modifications: Variant 10
B3: Variant 16: cell penetrating anti-DNA di-scFv variant, amino acid sequence SEQ ID NO: 44 (protein)
scFv: B2 scFv with S28T, S186G, S295T, S453G
modifications: Variant 16
B4: Variant 11: cell penetrating anti-DNA di-scFv variant, amino acid sequence SEQ ID NO: 39 (protein)
scFv: B2 scFv with L143V, G174E, A207S, S210T, L410V, G441E, A474S, S477T
modifications: Variant 11

Assays:
Format in all cases: cell-based
[1] = system: HDR-proficient DLD1 cells; experiment: Selectivity of combination therapy in HDR-proficient cells; conditions: 5 nM olaparib, 10 μM di-scFv, alone or combined
Experimental: Homology-directed repair (HDR) deficient BRCA2-DLD1 cells and PTEN-U251 cells were treated with control, 5 nM olaparib, 10 μM di-scFv, or 10 μM di-scFv+5 nM olaparib. Surviving fraction was determined by colony formation assay.
It was then determined whether the combination of di-scFv and olaparib is simply universally cytotoxic, regardless of DNA repair status. To evaluate this possibility, HDR-proficient DLD1 cells were treated with the above regimen to confirm selectivity of combination therapy to HDR-deficient malignant cells.

[2] = system: BRCA2-deficient DLD1 colon cancer cells; experiment: Cell viability by Trypan blue exclusion assay, BRCA2-deficient cells; conditions: BRCA2-deficient DLD1, 7 days, FIG. 10
Experimental: (§1) Next, a matched pair of BRCA2-proficient and deficient DLD1 colon cancer cells was treated with control media or media containing Variants 10, 13, 15, or 16. Cell viability was determined 7 days later by Trypan blue exclusion assay and by direct visualization of cell morphology by light microscopy. […] Representative light microscope images shown the changes in morphology in the BRCA2-deficient cancer cells treated with the variants are shown in FIG. 10, Panel A. Quantitative analysis of the cell survival by Trypan blue exclusion assay is shown in FIG. 10, Panel B.

[3] = system: DLD1 colon cancer cells; experiment: Alkaline phosphatase-based survey of nuclear penetration; conditions: DLD1 cells treated one hour; FIG. 5
[4] = system: BRCA2-proficient DLD1 colon cancer cells; experiment: Cell viability by Trypan blue exclusion assay, BRCA2-proficient cells; conditions: BRCA2-proficient DLD1, 7 days, FIG. 10
Experimental: as §1

[5] = system: PTEN-deficient U251 human glioma cells; experiment: Phospho-53BP1 foci accumulation (DNA damage), PTEN-deficient cells; conditions: PTEN-deficient U251, twenty-four hours, FIG. 8
Experimental: A matched pair of PTEN-proficient and deficient U251 human glioma cells were treated with control media or media containing Variant 10, 11, 13, 15, or 16 for twenty-four hours. Cells were then washed, fixed, blocked, and then probed with an anti-phospho-53BP1 antibody overnight. Cells were then washed and incubated with an AlexaFluor555-conjugated secondary antibody. Finally, cells were washed, counterstained with DAPI, and visualized under a fluorescence microscope. Images were saved and evaluated by CellProfiler to determine mean number of phospho-53BP1 foci per cell.
A matched pair of BRCA2-proficient and deficient DLD1 colon cancer cells and PTEN-proficient and deficient U251 human glioma cells were treated with control media or media containing 10 μM di-scFv variant 13 (SEQ ID NO: 41), 5 nM olaparib, or combination treatment.

[6] = system: PTEN-deficient U87 human glioma cells; experiment: Cell viability by Trypan blue exclusion assay and light microscopy; conditions: PTEN-deficient U87, 7 days after treatment, FIG. 9
Experimental: Cell viability of PTEN-deficient U87 human glioma cells was also assessed following treatment with control media or media containing Variants 10, 13, 15, or 16. Cell viability was determined 7 days after treatment using Trypan blue exclusion assay and by direct visualization of cell morphology by light microscopy.

Molecule | cell death [1] | cell viability (cell killing) [2] | nuclear penetration (histogram of cell counts versus nuclear staining intensity) relative to the yeast prototype [3] | cell viability (toxicity) [4] | mean number of phospho-53BP1 foci per cell [5] | cell viability relative to control treated cells [6]
O=C(c1cc(Cc2n[nH]c(=O)c3ccccc23)ccc1F)N1CCN(C(=O)C2CC2)CC1 [olaparib, reference compound] | remain resistant | – | – | – | – | –
B1 | – | killed by the variants | notable right shift and narrowing of distributions relative to the yeast prototype | not toxic | increased the number of foci | caused reductions in cell viability
B2 | – | killed by the variants | – | not toxic | increased the number of foci | caused reductions in cell viability
B3 | – | killed by the variants | – | not toxic | increased the number of foci | caused reductions in cell viability
B4 | – | – | – | – | increased the number of foci | –
